In publication PMC9426445 (mBio, 2022) one finds Kd, koff and kon data, which are given here for three molecules.

In test [1] the target is LI-LASV-pfGP soluble ectodomain monomer (lineage I Lassa virus prefusion glycoprotein) (Lassa virus lineage I, strain Pinneo, stabilised). As to the kind of experiment: BLI; Octet Red384; […] (AHC) capture sensors at 2.5 ug/mL; […]; 1x kinetics buffer (PBS, 0.1% BSA, 0.02% Tween 20); 1:1 fit; […]. The following applies: both partners purified. (Biolayer interferometry detects binding as a change in optical thickness at a sensor tip.)

Test [2] has as its target LIV-GP, soluble lineage IV LASV pfGP monomer (Lassa virus lineage IV, strain Josiah, stabilised). The description is as above. Particulars: both partners purified.

B1: GPC-B antibody 18.5C (IgG) (antibody, V domains shown)
VH: EVQLVQSGGGLVRPGGSLRLSCAAAGFTFKSYSMNWVRQAPGRGLEWVSSITSGGSKTYYADVVKGRFTVSRDNAKQSLYLQMNSLRAEDTAIYFCARSLHSTSQPSYMDVWGRKITVIVSS
VL: DIVLTQSPGTLSLSPGERATLSCRASQSVISYYVAWYQHKGGQAPRLLIYGASSRATGVPDRFSGSGSGTDFTLTISSLEPEDFALYYCQYYGSSPLWAFGQGTKVEIK
notes: copies: 2 + 2
In general, Kd refers to the free concentration of one partner at which half of the binding sites on the other are occupied at equilibrium, for simple one-to-one binding. Read a high Kd as a looser complex. One may read the koff as the rate constant with which the complex falls apart. Read a low koff as a long-lived complex. A word on the kon: it is a measure of how fast the partners come together. Low readings indicate slow association, high ones fast association. In test [1], B1 came in with an equilibrium dissociation constant (Kd) of 2.86 nM, a koff of 0.00235 s⁻¹ and an on-rate (kon) of 819000 M⁻¹ s⁻¹. In test [2], this molecule showed an equilibrium dissociation constant (Kd) of 0.091 nM, a koff of 7.8e-05 s⁻¹ and a kon of 858000 M⁻¹ s⁻¹.

B2: engineered GPC-B antibody 18.5C-M30 (IgG) (antibody, V domains shown)
VH: EVQLVQSGGGLVRPGGSLRLSCAAAGFTFKSYSMNWVRQAPGRGLEWVSSITSRGGSKTYYADVVKGRFTVSRDNAKQSLYLQMNSLRAEDTAIYFCARSRHSTSQPSYMDVWGRKITVIVSS
VL: DIVLTQSPGTLSLSPGERATLSCRASQSVISYYVAWYQHKGGQAPRLLIYGASSRATGVPDRFSGSGSGTDFTLTISSLEPEDFALYYCQYYGSSPLWAFGQGTKVEIK
notes: copies: 2 + 2
For B2, in test [1], the Kd was found to be 0.559 nM, the koff is 0.000423 s⁻¹ and the kon came out at 757000 M⁻¹ s⁻¹. Moreover, in test [2], the Kd was found to be 0.047 nM, the off-rate constant (koff) came out at 3.67e-05 s⁻¹ and the association rate constant (kon) was found to be 780000 M⁻¹ s⁻¹.

B3: GPC-A antibody 25.10C (IgG) (antibody, V domains shown)
VH: QVQLQESGGGLVKPGGSLRLSCTASGFNFNKYNMNWVRQAPGKGLEWVSSISALSTYIYYADSLKGRFTVSRDNAKNSLFLQMNSLRDDDTAVYYCAREIRRASTWSADLWGRGTLVTVSS
VL: DIQMTQSPSSLSASVGDRVIITCRASQSISSSLNWYQQKPGKAPKLLIYAAVNLETGVPSRFSGSGFGTDFTLAISNVQPEDFATYYCQQSDTRTFGRGTKLDVK
notes: copies: 2 + 2
In test [1], B3 displayed a Kd of 3.52 nM, a dissociation rate constant (koff) of 0.000387 s⁻¹ and a kon of 110000 M⁻¹ s⁻¹. Also, in test [2], the Kd was < 0.001 nM, the koff is < 1e-07 s⁻¹ and the association rate constant (kon) was determined as 150000 M⁻¹ s⁻¹.
